Laboratory results taken from patent US7592309B2, “Method of using a peptide having analgesic and antitumor activity from scorpion” (priority 2001, dated 2009).

Columns and labels:
Assay type in all cases: in vivo
[1] = tested on: ehrlich ascites carcinoma; experiment: mouse ehrlich ascites carcinoma model, rate of life prolonging
Procedure: (§1) In mouse experimental tumor model, such as ehrlich ascites carcinoma and S180 entity tumor, the peptide derived from the scorpion or partial fragment, derivative or analogue thereof having analgesic and antitumor activity obtained in example 1,2 and 6 was injected subcutaneously in a dose of 0.1 mg/kg weight to 16.0 mg/kg weight for continuous seven days. […] For example, the peptide of the SDS-PAGE single band obtained in Example 1 was administrated at the dose of 0.639 mg/kg weight. […] The peptide derived from the scorpion or partial fragment, derivative or analogue thereof having analgesic and antitumor activity obtained in example 1,2 and 6 was administrated by stomach infusion in a dose of 0.1 mg/kg weight to 16.0 mg/kg weight for continuous ten days.

S180 sarcoma solid tumor = experiment: mouse S180 sarcoma solid tumor model, inhibitory rate of tumor weight; conditions: S180, dose 60.0 mg/kg weight (positive control)
Procedure: as §1

[2] = tested on: writhing response of mouse (acetic acid writhing model); conditions: administered by stomach infusion
Procedure: (§2) The above samples were administrated by stomach infusion in a dose of 0.1 mg/kg weight to 16.0 mg/kg weight. […] In the mouse heat plate model, the above samples were administrated by intravenous injection in a dose of 0.1 mg/kg weight to 16.0 mg/kg weight. […] For example, the peptide of SDS-PAGE single band obtained in example 1 and 2 were injected intravenously at 0.6 mg/kg weight.

mouse heat plate model = mouse heat plate model (pain threshold); conditions: 0.6 mg/kg weight intravenously
Procedure: as §2

## O=P1(N(CCCl)CCCl)NCCCO1 (stereo not drawn) [cyclophosphamide, reference compound]
[1]; dose 60.0 mg/kg weight, subcutaneous injection (positive control)
  rate of life prolonging: 15.6%
S180 sarcoma solid tumor
  inhibitory rate of tumor weight: 50.5%

B1: Example 2: peptide having analgesic and antitumor activity purified from homogenized scorpion by the processes of Example 1; SEQ ID NO: 1 (protein)
chain: VRDGYIADDKNCAYFCGRNAYCDDECKKNGAESGYCQWAGVYGNACWCYKLPDKVPIRVPGKCNGG
modifications: Scorpion
[1]; stomach infusion, dose 0.213 mg/kg weight, ten days
  rate of life prolonging: 16.8%
[1]; stomach infusion, dose 0.639 mg/kg weight, ten days
  rate of life prolonging: 31.5%
[2]
  ED50 (median effective dose): 2.86 mg/kg weight
Mouse heat plate model; at 5 min
  pain threshold raised in a rate of: 16.5%
Mouse heat plate model; at 15 min
  pain threshold raised in a rate of: 145.7%
Mouse heat plate model; at 25 min
  pain threshold raised in a rate of: 219.1%
Mouse heat plate model; at 35 min
  pain threshold raised in a rate of: 219.1%
Mouse heat plate model; at 45 min
  pain threshold raised in a rate of: 177.6%
Mouse heat plate model; at 60 min
  pain threshold raised in a rate of: 32.4%
Mouse heat plate model; at 90 min
  pain threshold raised in a rate of: 14.9%
